Measured values reported in patent US20070248536A1 (SCIL PROTEINS, published 2007).

How the values were obtained:
proNGF [1] = experiment: SPR (BIACORE), SPC7-E9 coupled through amino groups to a CM5 chip, proNGF as analyte
Description: FIG. 9: Sensorgrams of the Biacore experiments for the binding of SPC7-E9 to a CM5 chip with proNGF. 280 RU of […] were immobilized and different concentrations of proNGF passed over the chip. As the running buffer served HBS-EP with a flow rate of 30 μl/min.
2.) Furthermore, SPC7-E9 could be coupled unspecifically via surface-exposed amino groups (lysines) by means of NHS/EDC to the carboxyl groups of the BIACORE dextrane matrix in the following manner: The CM5 chip was activated for 7 min with NHS/EDC, and afterwards purified SPC7-E9 (in 20 mM Na phosphate buffer, pH 6.0) was passed over the chip for further 7 min. After the coupling was carried out the remaining reactive groups were deactivated for 7 min with 1 M ethanolamine (pH 8.5). For the analysis of dissociation constants the target proNGF was passed over the chip in different concentrations, the binding was monitored online (FIG. 9), and the curves were subsequently evaluated with the BiaEvaluation Software. […] After kinetic measurements the chip was regenerated with 0.1 glycin (pH 2.2), 10 mM HCl, 10 mM NaOh, 6 M Gua/HCl, 6 M urea and 20% ethanol. In this way, the binding activity of the Affilin™ chip was unchanged even after several regeneration cycles

proNGF [2] = experiment: concentration-dependent ELISA, proNGF coated, apparent KD
Description: FIG. 3: Concentration-dependent ELISA for the detection of the binding of SPC7-E9 to proNGF. The microtiter plate was coated with 10 μg/mi of proNGF. As the detection antibody served an anti-human gamma-II-crystallin antibody-POD conjugate in a dilution of 1:1000. The absorption values presented are mean values of two parallel measurements.

BSA = biological target: T1, BSA (bovine, UniProt P02769 25-607); experiment: concentration-dependent ELISA, detection with anti-gamma-II-crystallin antibody-POD
T1 construct: Control antigen
Description: The binding properties of the purified proteins were now tested as described above in a concentration-dependent ELISA. For this purpose, different concentrations (100 nM-10 μM) of the Affilin™ variations were employed and an anti-gamma-II-crystallin antibody (monoclonal antibody conjugate with POD) was employed as the detection antibody.

human IgG Fc = biological target: T2, human IgG Fc (human); experiment: SPR (BIACORE), IgG Fc immobilised on a CM5 chip, Affilin as analyte
T2 construct: domain: Fc; The ELISAs used human monoclonal IgG Fc (Roche); Kept as one molecule; also called human monoclonal IgG Fc portion (Roche); polyclonal IgG Fc
Description: In BIACORE experiments the dissociation constants of the three Affilin™ variations were determined. For this purpose, approx. 180 RU of human IgG Fc (50 μg/ml in 50 mM Na citrate, pH 5.0) was immobilized on a CM5 chip. Free binding sites were finally inactivated by 1 M ethanolamin (pH 8.5).
Then, at a flow of 30 μl/min, 6 different concentrations (166 nM-1 μM) were passed over the chip for 180 sec. Afterwards, at the same flow the chip was rinsed with HBS, 0.005% Surfactant P20 (Biacore) for 180 sec. From the resulting sensorgrams using the BiaEvaluation Software (Biacore, Uppsala, Sweden) the following dissociation constants of the Affilin™ variations to IgG Fc could be determined: SPC1-A1 with 230 nM, SPC1-A7 with 280 nM and SPC1-G3 with 800 nM. In competition experiments the specific binding of the Affilin™ variations to IgG Fc and not to the chip matrix could be detected (FIG. 2).

T1 sequence (P02769 25-607 limits assumed): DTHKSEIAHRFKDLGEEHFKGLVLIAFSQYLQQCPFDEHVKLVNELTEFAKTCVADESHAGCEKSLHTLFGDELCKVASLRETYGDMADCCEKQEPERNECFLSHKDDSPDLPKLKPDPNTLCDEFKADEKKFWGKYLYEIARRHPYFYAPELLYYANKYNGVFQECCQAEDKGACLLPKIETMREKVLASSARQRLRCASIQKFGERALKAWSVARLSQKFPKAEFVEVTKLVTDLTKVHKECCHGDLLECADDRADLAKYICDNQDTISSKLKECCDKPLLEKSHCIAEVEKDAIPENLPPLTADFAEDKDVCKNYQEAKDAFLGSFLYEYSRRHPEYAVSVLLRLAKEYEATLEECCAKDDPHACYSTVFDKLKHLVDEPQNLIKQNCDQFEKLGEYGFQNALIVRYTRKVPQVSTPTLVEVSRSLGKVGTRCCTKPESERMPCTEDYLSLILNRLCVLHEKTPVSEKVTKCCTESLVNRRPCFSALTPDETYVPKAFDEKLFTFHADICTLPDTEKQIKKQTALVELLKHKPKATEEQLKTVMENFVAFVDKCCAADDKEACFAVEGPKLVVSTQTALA
Sequence of proNGF (P01138 19-241): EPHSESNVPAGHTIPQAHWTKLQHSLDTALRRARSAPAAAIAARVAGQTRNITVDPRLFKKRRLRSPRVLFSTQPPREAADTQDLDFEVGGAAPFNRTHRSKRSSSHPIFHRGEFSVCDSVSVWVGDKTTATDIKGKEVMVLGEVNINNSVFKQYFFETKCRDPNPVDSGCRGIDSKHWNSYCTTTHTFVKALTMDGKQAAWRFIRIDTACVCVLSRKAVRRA

| Binder | Kd (proNGF [1]) [µM] | Kd (proNGF [2]) [µM] | binding result (BSA) | Kd (human IgG Fc) [µM] |
| --- | --- | --- | --- | --- |
| Affilin variation SPC7-E9 (designed binder, Directed against proNGF; also called SPCJ-E9 (including His6)) MGFICFLEDRAFQGRSYACDTDCPNLQPYFSRCNSISVLSGCWMIYERPNYQGHQYFLRRGEYPDYQQWMGLSDSIRSCCLIPPHSGAYRMKIYDRDELRGQMSELTDDCLSVQDRFHLTEIHSLNVLEGSWILYEMPNYRGRQYLLRPGEYRRFLDWGAPNAKVGSLRRVMDLYLEHHHHHH | 0.0014 | 0.2 |  |  |
| human wildtype gamma-II-crystallin (other, UniProt P07316 1-175, looked up, also called human wildtype gamma-crystallin) MGKITFYEDRAFQGRSYECTTDCPNLQPYFSRCNSIRVESGCWMIYERPNYQGHQYFLRRGEYPDYQQWMGLSDSIRSCCLIPPHSGAYRMKIYDRDELRGQMSELTDDCISVQDRFHLTEIHSLNVLEGSWILYEMPNYRGRQYLLRPGEYRRFLDWGAPNAKVGSLRRVMDLY |  |  | no binding |  |
| Affilin variation SPC1-A1 (designed binder, Selected from the human gamma-II-crystallin library CR20) MGFIWFMEDRAFQGRRYDCGTDCPNLQPYFSRCNSIKVKSGCWMIYERPNYQGHRHQYFLRRGEYPDYQQWMGLSDSIRSCCLIPPHSGAYRMKIYDRDELRGQMSELTDDCLSVQDRFHLTEIHSLNVLEGSWILYEMPNYRGRQYLLRPGEYRRFLDWGAPNAKVGSLRRVMDLYA |  |  | no binding (tested: 100 nM-10 µM) | 0.23 |
| Affilin variation SPC1-A7 (designed binder, Selected from library CR20; has a free cysteine in variable position 4; not shown: C-terminal tag of six histidines 'already present') MGLICFSEDRAFQGRRYMCLTDCPNLQPYFSRCNSINVWSGCWMIYERPNYQGHRHQYFLRRGEYPDYQQWMGLSDSIRSCCLIPPHSGAYRMKIYDRDELRGQMSELTDDCLSVQDRFHLTEIHSLNVLEGSWILYEMPNYRGRQYLLRPGEYRRFLDWGAPNAKVGSLRRVMDLYA |  |  | no binding (tested: 100 nM-10 µM) | 0.28 |
| Affilin variation SPC1-G3 (designed binder, Selected from library CR20) MGSIIFLEDRAFQGRIYGCTTDCPNLQPYFSRCNSIVVQSGCWMIYERPNYQGHRHQYFLRRGEYPDYQQWMGLSDSIRSCCLIPPHSGAYRMKIYDRDELRGQMSELTDDCLSVQDRFHLTEIHSLNVLEGSWILYEMPNYRGRQYLLRPGEYRRFLDWGAPNAKVGSLRRVMDLYA |  |  | no binding (tested: 100 nM-10 µM) | 0.8 |
